Results: paper doi:10.1101/2024.11.06.622243, “The MRAP2 accessory protein directly interacts with melanocortin-3 receptor to enhance signaling” (bioRxiv, 2024)

What was measured:
[1] = target: T1, HA-Halo-MC3R (melanocortin-3 receptor) (human, UniProt P41968 1-323, CA-Sulfo646 dye on the Halo tag); assay: single-molecule pull-down (SiMPull); two-colour SiMPull: HA-Halo-tagged bait (CA-Sulfo646) and FLAG-CLIP-tagged prey (BC-DY547) co-expressed in HEK293 cells (300 ng Halo and 600 ng CLIP plasmid), labelled before lysis in 0.5% LMNG/0.05% CHS, bait immobilised by biotinylated anti-HA antibody, co-localisation and photobleaching steps by TIRF; details: partners not purified
T1 construct: human melanocortin-3 receptor (MC3R); pRK5 construct with an N-terminal signal peptide from rat mGluR2 before the HA and Halo tags; also called ss-HA-Halo-MC3R; source: HEK293, transiently transfected, in lysate (LMNG-CHS); not shown: HA, N-terminal, kept; Halo, N-terminal, kept
T1 sequence (P41968 whole entry): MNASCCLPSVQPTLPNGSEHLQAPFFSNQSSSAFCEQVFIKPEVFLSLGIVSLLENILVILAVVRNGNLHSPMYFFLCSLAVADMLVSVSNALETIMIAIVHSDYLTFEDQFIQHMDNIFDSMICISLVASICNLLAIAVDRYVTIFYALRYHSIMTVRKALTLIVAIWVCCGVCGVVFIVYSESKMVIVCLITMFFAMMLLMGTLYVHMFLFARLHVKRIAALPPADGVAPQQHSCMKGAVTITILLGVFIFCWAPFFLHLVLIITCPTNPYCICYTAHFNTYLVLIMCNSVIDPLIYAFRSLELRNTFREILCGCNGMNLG

[2] = target: the molecule itself; assay: single-molecule pull-down (SiMPull); one-colour SiMPull with photobleaching step analysis: HA-Halo-tagged protein labelled on HEK293 cells with membrane-impermeable CA-Sulfo646, lysed in 0.5% LMNG/0.05% CHS, immobilised by biotinylated anti-HA antibody on a PEG-passivated slide, TIRF imaging

B1: FLAG-CLIP-MRAP2 (melanocortin-2 receptor accessory protein-2) (natural protein, human, UniProt Q96G30 1-205, looked up)
chain: MSAQRLISNRTSQQSASNSDYTWEYEYYEIGPVSFEGLKAHKYSIVIGFWVGLAVFVIFMFFVLTLLTKTGAPHQDNAESSEKRFRMNSFVSDFGRPLEPDKVFSRQGNEESRSLFHCYINEVERLDRAKACHQTTALDSDVQLQEAIRSSGQPEEELNRLMKFDIPNFVNTDQNYFGEDDLLISEPPIVLETKPLSQTSHKDLD
modifications: BC-DY547 dye on the CLIP tag
notes: human melanocortin-2 receptor accessory protein 2 (MRAP2); pRK5 construct with an N-terminal signal peptide from rat mGluR2 before the tags; also called ss-FLAG-CLIP-MRAP2; source: HEK293, transiently transfected, in lysate (LMNG-CHS); not shown: FLAG, N-terminal, kept; CLIP, N-terminal, kept
Question: Which “stoichiometry N” value [1] does the source give for B1 here?
Answer: 1 MRAP2 per MC3R

B2: mGluR2 (receptor, UniProt P31421 19-872, looked up)
chain: EGPAKKVLTLEGDLVLGGLFPVHQKGGPAEECGPVNEHRGIQRLEAMLFALDRINRDPHLLPGVRLGAHILDSCSKDTHALEQALDFVRASLSRGADGSRHICPDGSYATHSDAPTAVTGVIGGSYSDVSIQVANLLRLFQIPQISYASTSAKLSDKSRYDYFARTVPPDFFQAKAMAEILRFFNWTYVSTVASEGDYGETGIEAFELEARARNICVATSEKVGRAMSRAAFEGVVRALLQKPSARVAVLFTRSEDARELLAATQRLNASFTWVASDGWGALESVVAGSERAAEGAITIELASYPISDFASYFQSLDPWNNSRNPWFREFWEERFHCSFRQRDCAAHSLRAVPFEQESKIMFVVNAVYAMAHALHNMHRALCPNTTHLCDAMRPVNGRRLYKDFVLNVKFDAPFRPADTDDEVRFDRFGDGIGRYNIFTYLRAGSGRYRYQKVGYWAEGLTLDTSFIPWASPSAGPLPASRCSEPCLQNEVKSVQPGEVCCWLCIPCQPYEYRLDEFTCADCGLGYWPNASLTGCFELPQEYIRWGDAWAVGPVTIACLGALATLFVLGVFVRHNATPVVKASGRELCYILLGGVFLCYCMTFVFIAKPSTAVCTLRRLGLGTAFSVCYSALLTKTNRIARIFGGAREGAQRPRFISPASQVAICLALISGQLLIVAAWLVVEAPGTGKETAPERREVVTLRCNHRDASMLGSLAYNVLLIALCTLYAFKTRKCPENFNEAKFIGFTMYTTCIIWLAFLPIFYVTSSDYRVQTTTMCVSVSLSGSVVLGCLFAPKLHIILFQPQKNVVSHRAPTSRFGSAAPRASANLGQGSGSQFVPTVCNGREVVDSTTSSL
notes: metabotropic glutamate receptor 2 (mGluR2), control of the SiMPull photobleaching analysis; also called known dimeric GPCR mGluR2; source: HEK293, transfected, in lysate
Question: How did the “stoichiometry N” value [2] turn out when B2 was run?
Answer: 2
